Experimental data taken from patent publication US20230287598A1 (TAURUS BIOSCIENCES, published 2023).

Experiments:
CXCR1 [1] = biological target: T1, CXCR1 (UniProt P25024 1-350, limits assumed); experiment: cell-based or functional assay
T1 sequence (looked up): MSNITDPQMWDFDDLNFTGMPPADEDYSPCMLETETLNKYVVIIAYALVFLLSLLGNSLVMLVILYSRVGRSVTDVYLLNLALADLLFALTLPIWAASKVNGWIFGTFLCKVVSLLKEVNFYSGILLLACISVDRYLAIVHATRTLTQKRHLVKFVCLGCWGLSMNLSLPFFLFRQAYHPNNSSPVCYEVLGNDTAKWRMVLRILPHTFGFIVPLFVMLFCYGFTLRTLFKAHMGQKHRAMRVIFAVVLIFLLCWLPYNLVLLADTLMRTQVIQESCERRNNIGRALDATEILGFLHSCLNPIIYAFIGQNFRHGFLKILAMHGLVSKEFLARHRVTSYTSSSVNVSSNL

Kv1.3 = Kv1.3 (human (T-cells from human blood donors), UniProt P22001 1-575); experiment: cell-based or functional assay
CXCR1 [2] = biological target: T2, CXCR1 (UniProt P25024 1-350, limits assumed); experiment: flow cytometry on CXCR1-U2OS cells (parental U2OS: 5)
T2 construct: whole, on cells; DiscoveRx PathHunter cell line; any reporter tag on the receptor is not described; also called CXCR1 receptor; CXCR1-U2OS
T2 sequence (looked up): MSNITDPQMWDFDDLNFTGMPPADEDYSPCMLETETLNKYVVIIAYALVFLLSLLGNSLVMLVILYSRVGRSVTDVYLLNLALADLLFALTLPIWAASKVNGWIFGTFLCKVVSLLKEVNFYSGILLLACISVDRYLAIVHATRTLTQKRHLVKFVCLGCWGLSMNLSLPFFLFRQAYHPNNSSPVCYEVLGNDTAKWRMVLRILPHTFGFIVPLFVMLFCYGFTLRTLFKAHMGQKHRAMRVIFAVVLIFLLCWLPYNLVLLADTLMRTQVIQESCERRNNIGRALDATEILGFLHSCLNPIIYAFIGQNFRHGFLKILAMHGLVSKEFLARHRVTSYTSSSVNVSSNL

CXCR1 [3] = biological target: T2, CXCR1; experiment: flow cytometry, CXCR1-U2OS / parental U2OS
CXCR1 [4] = biological target: T2, CXCR1; experiment: flow cytometry, median fluorescence CXCR1-U2OS / parental U2OS

Chain of Kv1.3 (P22001 whole entry): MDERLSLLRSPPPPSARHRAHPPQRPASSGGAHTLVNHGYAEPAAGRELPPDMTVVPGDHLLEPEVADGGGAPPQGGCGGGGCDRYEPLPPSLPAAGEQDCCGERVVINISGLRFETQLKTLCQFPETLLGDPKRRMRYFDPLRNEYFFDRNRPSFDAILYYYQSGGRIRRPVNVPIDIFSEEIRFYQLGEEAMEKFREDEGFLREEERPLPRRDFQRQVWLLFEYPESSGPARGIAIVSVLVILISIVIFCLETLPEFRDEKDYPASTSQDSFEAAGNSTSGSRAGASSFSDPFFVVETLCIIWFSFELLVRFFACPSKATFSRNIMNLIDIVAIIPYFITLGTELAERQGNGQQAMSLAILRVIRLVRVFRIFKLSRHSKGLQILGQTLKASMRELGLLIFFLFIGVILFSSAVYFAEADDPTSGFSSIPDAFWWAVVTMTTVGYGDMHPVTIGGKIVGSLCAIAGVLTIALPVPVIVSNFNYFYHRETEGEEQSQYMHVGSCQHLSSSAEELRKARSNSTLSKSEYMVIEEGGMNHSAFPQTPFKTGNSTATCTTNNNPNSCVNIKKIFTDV

B1: VH4-34 MutE IL-8 5R6E31D32K50S (antibody, human IgG1)
VH: QVQLREWGAGLLKPSETLSLTCAVYGGSFSDKYWSWIRQPPGKGLEWIGSINHSGSTNYNPSLKSRVTISVDTSKNQFSLKLSSVTAADTAVYYCTSVHQETKKYQSPRSAKELRCQCIKTYSKPFHPKFIKELRVIESGPHCANTEIIVKLSDGRELCLDPKENWVQRVVEKFLKRAENSGSGSYTYNYEWHVDVWGQGLLVTVSS
light: QAVLNQPSSVSGSLGQKVTISCSGSSSNIGNNYVSWYQQLPGTAPRTLIYGDTKRPSGIPDRFSGSKSGTSATLGITGLQTGDEADYYCASAEDSSSNAVFGSGTTLTVLGQPKAAPSVTLFPPSSEELQANKATLVCLISDFYPGAVTVAWKADSSPVKAGVETTTPSKQSNNKYAASSYLSLTPEQWKSHRSYSCQVTHEGSTVEKTVAPTECS
CXCR1 activation, luminescence, 0.1 nM IL-8 domains (CXCR1 [1]): 4060 luminescence | CXCR1 activation, luminescence, 0.5 nM IL-8 domains (CXCR1 [1]): 5300 luminescence | CXCR1 activation, luminescence, 2.2 nM IL-8 domains (CXCR1 [1]): 10300 luminescence | CXCR1 activation, luminescence, 9.9 nM IL-8 domains (CXCR1 [1]): 17100 luminescence | CXCR1 activation, luminescence, 44 nM IL-8 domains (CXCR1 [1]): 23300 luminescence | CXCR1 activation, luminescence, 200 nM IL-8 domains (CXCR1 [1]): 22300 luminescence

B2: VH4-34 MutF IL-8 5R6E CD1cow (antibody, human IgG1)
VH: QVQLREWGAGLLKPSETLSLTCTASGFSLSDKAVGWIRQPPGKGLEWIGEINHSGSTNYNPSLKSRVTISVDTSKNQFSLKLSSVTAADTAVYYCTSVHQETKKYQSPRSAKELRCQCIKTYSKPFHPKFIKELRVIESGPHCANTEIIVKLSDGRELCLDPKENWVQRVVEKFLKRAENSGSGSYTYNYEWHVDVWGQGLLVTVSS
light: QAVLNQPSSVSGSLGQKVTISCSGSSSNIGNNYVSWYQQLPGTAPRTLIYGDTKRPSGIPDRFSGSKSGTSATLGITGLQTGDEADYYCASAEDSSSNAVFGSGTTLTVLGQPKAAPSVTLFPPSSEELQANKATLVCLISDFYPGAVTVAWKADSSPVKAGVETTTPSKQSNNKYAASSYLSLTPEQWKSHRSYSCQVTHEGSTVEKTVAPTECS
CXCR1 activation, luminescence, 0.1 nM IL-8 domains (CXCR1 [1]): 4180 luminescence | CXCR1 activation, luminescence, 0.5 nM IL-8 domains (CXCR1 [1]): 6620 luminescence | CXCR1 activation, luminescence, 2.2 nM IL-8 domains (CXCR1 [1]): 13500 luminescence | CXCR1 activation, luminescence, 9.9 nM IL-8 domains (CXCR1 [1]): 21900 luminescence | CXCR1 activation, luminescence, 44 nM IL-8 domains (CXCR1 [1]): 24000 luminescence | CXCR1 activation, luminescence, 200 nM IL-8 domains (CXCR1 [1]): 25000 luminescence

B3: BLV1H12 GGS3:3 Moka (antibody)
VH: QVQLRESGPSLVKPSQTLSLTCTASGFSLSDKAVGWVRQAPGKALEWLGSIDTGGNTGYNPGLKSRLSITKDNSKSQVSLSVSSVTTEDSATYYCTSVHQETKKYQSGGSGGSGGSGINVKCSLPQQCIKPCKDAGMRFGKCMNKKCRCYSGGSGGSGGSSYTYNYEWHVDVWGQGLLVTVSSAS
light: not shown
EC50 (nM), inhibition of T-cell activation, IL-2 secretion, Donor 1 (Kv1.3): 14.4 nM | EC50 (nM), inhibition of T-cell activation, IL-2 secretion, Donor 2 (Kv1.3): 40.2 nM | EC50 (nM), inhibition of T-cell activation, TNFα secretion, Donor 1 (Kv1.3): 19.3 nM | EC50 (nM), inhibition of T-cell activation, TNFα secretion, Donor 2 (Kv1.3): 38.2 nM

B4: VH1-46+CDR3-IL8 IgG (antibody)
VH: QVQLVQSGAEVKKPGASVKVSCKASGYTFTSYYMHWVRQAPGQGLEWMGIINPSGGSTSYAQKFQGRVTMTRDTSTSTVYMELSSLRSEDTAVYYCTSVHQETKKYQSPRSAKELRCQCIKTYSKPFHPKFIKELRVIESGPHCANTEIIVKLSDGRELCLDPKENWVQRVVEKFLKRAENSGSGSYTYNYEWHVDVWGQGLLVTVSSAS
light: not shown
notes: also called VH1-46 BLVCDR3IL8
median AFU on CXCR1-U2OS (CXCR1 [2]): 6 AFU

B5: VH1-24+CDR3-IL8 IgG (antibody)
VH: QVQLVQSGAEVKKPGASVKVSCKVSGYTLTELSMHWVRQAPGKGLEWMGGFDPEDGETIYAQKFQGRVTMTEDTSTDTAYMELSSLRSEDTAVYYCTSVHQETKKYQSPRSAKELRCQCIKTYSKPFHPKFIKELRVIESGPHCANTEIIVKLSDGRELCLDPKENWVQRVVEKFLKRAENSGSGSYTYNYEWHVDVWGQGLLVTVSSAS
light: not shown
notes: also called VH1-24 BLVCDR3IL8
median AFU on CXCR1-U2OS (CXCR1 [2]): 23 AFU

B6: BLV1H12 IgG (antibody)
VH: QVQLRESGPSLVKPSQTLSLTCTASGFSLSDKAVGWVRQAPGKALEWLGSIDTGGNTGYNPGLKSRLSITKDNSKSQVSLSVSSVTTEDSATYYCTSVHQETKKYQSCPDGYRERSDCSNRPACGTSDCCRVSVFGNCLTTLPVSYSYTYNYEWHVDVWGQGLLVTVSS
light: not shown
notes: also called ULcowV
FACS CXCR1/Parental Ratio (CXCR1 [3]): 1.9 | Ratio of CXCR1/Parental (CXCR1 [4]): 1.9 | median AFU on CXCR1-U2OS (CXCR1 [2]): 9 AFU

B7: BLV1H12 GLLV 3xG4S ShK (antibody)
VH: QVQLRESGPSLVKPSQTLSLTCTASGFSLSDKAVGWVRQAPGKALEWLGSIDTGGNTGYNPGLKSRLSITKDNSKSQVSLSVSSVTTEDSATYYCTSVHQETKKYQSGGGGSGGGGSGGGGSGGRSCIDTIPKSRCTAFQCKHSMKYRLSFCRKTCGTCGGGGSGGGGSGGGGSSYTYNYEWHVDVWGQGLLVTVSSAS
light: not shown
EC50 (nM), inhibition of T-cell activation, IL-2 secretion, Donor 1 (Kv1.3): 0.1 nM | EC50 (nM), inhibition of T-cell activation, IL-2 secretion, Donor 2 (Kv1.3): 0.03 nM | EC50 (nM), inhibition of T-cell activation, TNFα secretion, Donor 1 (Kv1.3): 6.5 nM | EC50 (nM), inhibition of T-cell activation, TNFα secretion, Donor 2 (Kv1.3): 0.2 nM
